Reference: US20260242478A1 (published 2026)
Where no end group is shown, it is not given here.

How the values were obtained:
[1] = molecular target: T1, Anti-CD28 scFv (VH - linker 1 - VL) (biotinylated (site not stated)); assay: phage ELISA as above, wells pre-incubated with soluble CD28 (competitor);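 also: ELISA of crude clonal phage supernatants added to wells pre-treated with soluble CD28 in blocking buffer, bound phage read out with HRP-conjugated anti-M13 antibody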
T1 construct: Captured as biotinylated scFv on neutravidin plates in the panning ELISA
T1 sequence (scFv, as listed by the source): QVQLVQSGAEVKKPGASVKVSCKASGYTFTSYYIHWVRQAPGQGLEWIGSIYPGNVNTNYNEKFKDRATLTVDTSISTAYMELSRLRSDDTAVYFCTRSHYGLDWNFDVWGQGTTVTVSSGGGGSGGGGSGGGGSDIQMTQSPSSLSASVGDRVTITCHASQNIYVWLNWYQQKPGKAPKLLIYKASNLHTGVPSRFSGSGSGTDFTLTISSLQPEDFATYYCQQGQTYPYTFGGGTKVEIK

[2] = molecular target: T1, Anti-CD28 scFv (VH - linker 1 - VL); assay: phage ELISA: biotinylated anti-CD28 scFv on neutravidin plate, clonal phage supernatant, anti-M13-HRP detection;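 also: competition format: before phage supernatant was added, wells were preincubated with soluble CD28 protein or with blocking buffer only, and phage were added without an intervening wash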
Procedure: (§1) Clonal phage were harvested as crude supernatants and screened via standard enzyme linked immunosorbent assays (ELISAs). […] Prior to the addition of clonal phage, wells were incubated with blocking buffer and CD28 soluble protein or blocking buffer alone. Without washing or aspirating, clonal phage supernatants were then added to the wells and incubated for a short time. Wells were then washed followed by detection of bound phage using a horse radish peroxidase conjugated anti-M13 antibody.

[3] = molecular target: T2, Anti-CD28 scFv (VH - linker 1 - VL) (biotinylated (site not stated)); assay: phage ELISA; biotinylated anti-CD28 scFv on neutravidin plate, clonal phage supernatant, anti-M13-HRP detection;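 also: before phage addition, wells were pretreated with soluble CD28 protein in blocking buffer, or with blocking buffer only as the comparison, then phage were added without washing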
T2 construct: Biotinylated scFv captured on neutravidin coated plates in the panning ELISA
T2 sequence (scFv, as listed by the source): as above

[4] = molecular target: T2, Anti-CD28 scFv (VH - linker 1 - VL); assay: phage ELISA; biotinylated anti-CD28 scFv on neutravidin plate, wells pre-incubated with soluble CD28 (competitor), anti-M13-HRP detection;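 also: bound clonal phage detected by peroxidase-labelled anti-M13 antibody, compared against wells given blocking buffer alone without soluble CD28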
Procedure: as §1

[5] = molecular target: T3, Anti-CD28 scFv (VH - linker 1 - VL) (biotinylated (site not stated)); assay: phage ELISA as above, wells pre-incubated with soluble CD28 (competitor);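 also: ELISA of crude clonal phage supernatants added to wells pre-treated with soluble CD28 in blocking buffer, bound phage read out with HRP-conjugated anti-M13 antibody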
T3 construct: Biotinylated scFv captured on neutravidin coated plates in the panning ELISA
T3 sequence (scFv, as listed by the source): as above

[6] = molecular target: T3, Anti-CD28 scFv (VH - linker 1 - VL); assay: phage ELISA; biotinylated anti-CD28 scFv on neutravidin plate, clonal phage supernatant, anti-M13-HRP;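 also: before the phage were added, wells were pre-incubated with soluble CD28 protein in blocking buffer, or with blocking buffer alone, and were not washed in between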
Procedure: as §1

With MDWCPSDMWSNCFN [Phage-413] the “CD28 scFv signal in presence of CD28” value [1] was 0.121 and the “CD28 scFv signal” value [2] was 1.07.

With MDWCPRDLWFACFA (tested as crude phage supernatant) [Phage-282] the “CD28 scFv signal” value [3] was 2.66 and the “CD28 scFv signal in presence of CD28” value [4] was 0.794.

MDWCPRYLWHVCFY (tested as crude phage supernatant) [Phage-291] was tested, and the “CD28 scFv signal” value [3] was 2.5 and the “CD28 scFv signal in presence of CD28” value [4] was 1.14.

MDWCPRYLWHVCFD (tested as crude phage supernatant) [Phage-302] was tested, and the “CD28 scFv signal” value [3] was 2.44 and the “CD28 scFv signal in presence of CD28” value [4] was 0.31.

In the case of LYWCPRDMWAYCYS [Phage-414], the “CD28 scFv signal in presence of CD28” value [1] is reported as 0.157 and the “CD28 scFv signal” value [2] is reported as 1.02.

For MHWCPLYLWDECFY [Phage-366], the “CD28 scFv signal in presence of CD28” value [5] was 0.376 and the “CD28 scFv signal” value [6] was 1.16.

For MDWCPLDMWVLCFA [Phage-401], the “CD28 scFv signal in presence of CD28” value [1] was 0.169 and the “CD28 scFv signal” value [2] was 1.84.

In the case of MDWCPRDMWFECFN [Phage-393], the “CD28 scFv signal in presence of CD28” value [1] is reported as 0.778 and the “CD28 scFv signal” value [2] is reported as 2.42.

In the case of LHWCPITMWTYCYY [Phage-409], the “CD28 scFv signal in presence of CD28” value [1] is reported as 0.516 and the “CD28 scFv signal” value [2] is reported as 1.21.

With QHWCPRDMWNDCYA [Phage-412] the “CD28 scFv signal in presence of CD28” value [1] was 0.149 and the “CD28 scFv signal” value [2] was 1.08.

For MFWCPKDMWAECFA [Phage-408], the “CD28 scFv signal in presence of CD28” value [1] was 0.113 and the “CD28 scFv signal” value [2] was 1.26.

With MDWCPRYMWSDCFF [Phage-394] the “CD28 scFv signal in presence of CD28” value [1] was 0.377 and the “CD28 scFv signal” value [2] was 2.28.

For MDWCPSFLWYECFN [Phage-367], the “CD28 scFv signal in presence of CD28” value [5] was 0.104 and the “CD28 scFv signal” value [6] was 1.13.

In the case of MDWCPRDLWAMCFA (cysteine pairing not given here; also: displayed on phage as fusion to pIII, tested as crude phage supernatant) [Phage-285], the “CD28 scFv signal” value [3] is reported as 2.63 and the “CD28 scFv signal in presence of CD28” value [4] is reported as 0.889.

For MDWCPRYLWPVCFH (tested as crude phage supernatant) [Phage-307], the “CD28 scFv signal” value [3] was 2.39 and the “CD28 scFv signal in presence of CD28” value [4] was 0.602.

For MDWCPIALWDFCFA (tested as crude phage supernatant) [Phage-288], the “CD28 scFv signal” value [3] was 2.52 and the “CD28 scFv signal in presence of CD28” value [4] was 0.492.

In the case of MSWCPRFMWHECFN [Phage-411], the “CD28 scFv signal in presence of CD28” value [1] is reported as 0.246 and the “CD28 scFv signal” value [2] is reported as 1.11.

With MDWCPRSLWFLCFN (tested as crude phage supernatant) [Phage-281] the “CD28 scFv signal” value [3] was 2.71 and the “CD28 scFv signal in presence of CD28” value [4] was 1.77.

For MNWCPIHMWNQCFA [Phage-407], the “CD28 scFv signal in presence of CD28” value [1] was 0.133 and the “CD28 scFv signal” value [2] was 1.37.

With MERCPRYLWHMCYS (tested as crude phage supernatant) [Phage-286] the “CD28 scFv signal” value [3] was 2.59 and the “CD28 scFv signal in presence of CD28” value [4] was 0.84.

MDWCPKSLWAECFN (tested as crude phage supernatant) [Phage-308] was tested, and the “CD28 scFv signal” value [3] was 2.38 and the “CD28 scFv signal in presence of CD28” value [4] was 0.162.

With MDWCPRHMWHECFH [Phage-402] the “CD28 scFv signal in presence of CD28” value [1] was 0.171 and the “CD28 scFv signal” value [2] was 1.81.

In the case of MSWCPWDMWNECFA [Phage-403], the “CD28 scFv signal in presence of CD28” value [1] is reported as 0.108 and the “CD28 scFv signal” value [2] is reported as 1.52.

With MDWCPRSLWAQCFY [Phage-364] the “CD28 scFv signal in presence of CD28” value [5] was 0.14 and the “CD28 scFv signal” value [6] was 1.39.

In the case of MDWCPRYLWTECFS (tested as crude phage supernatant) [Phage-303], the “CD28 scFv signal” value [3] is reported as 2.42 and the “CD28 scFv signal in presence of CD28” value [4] is reported as 0.329.

With MDWCPRDLWTECFS (tested as crude phage supernatant) [Phage-305] the “CD28 scFv signal” value [3] was 2.4 and the “CD28 scFv signal in presence of CD28” value [4] was 0.174.

MDWCPRDLWSVCFS (tested as crude phage supernatant) [Phage-290] was tested, and the “CD28 scFv signal” value [3] was 2.5 and the “CD28 scFv signal in presence of CD28” value [4] was 0.116.

In the case of MDWCPMSMWAFCFD [Phage-405], the “CD28 scFv signal in presence of CD28” value [1] is reported as 0.16 and the “CD28 scFv signal” value [2] is reported as 1.41.

With MDWCPRNMWNECFF [Phage-398] the “CD28 scFv signal in presence of CD28” value [1] was 0.43 and the “CD28 scFv signal” value [2] was 2.1.

For MNWCPIDMWTECFN [Phage-406], the “CD28 scFv signal in presence of CD28” value [1] was 0.175 and the “CD28 scFv signal” value [2] was 1.4.

For MSWCPPYLWTVCYN [Phage-368], the “CD28 scFv signal in presence of CD28” value [5] was 0.326 and the “CD28 scFv signal” value [6] was 1.1.

With MDWCPMYMWHKCFH [Phage-415] the “CD28 scFv signal in presence of CD28” value [1] was 0.168 and the “CD28 scFv signal” value [2] was 0.987.

TDWCPRDMWYLCFN [Phage-396] was tested, and the “CD28 scFv signal in presence of CD28” value [1] was 0.301 and the “CD28 scFv signal” value [2] was 2.11.

For IDWCPRYMWHECFF [Phage-410], the “CD28 scFv signal in presence of CD28” value [1] was 0.164 and the “CD28 scFv signal” value [2] was 1.18.

For MDWCPIYLWAECFN (tested as crude phage supernatant) [Phage-299], the “CD28 scFv signal” value [3] was 2.45 and the “CD28 scFv signal in presence of CD28” value [4] was 0.307.

In the case of MDWCPRDMWTSCFN [Phage-404], the “CD28 scFv signal in presence of CD28” value [1] is reported as 0.179 and the “CD28 scFv signal” value [2] is reported as 1.41.

In the case of MDWCPFDMWADCFF [Phage-391], the “CD28 scFv signal in presence of CD28” value [1] is reported as 0.215 and the “CD28 scFv signal” value [2] is reported as 2.53.

MDWCPRALWDHCFF (tested as crude phage supernatant) [Phage-292] was tested, and the “CD28 scFv signal” value [3] was 2.49 and the “CD28 scFv signal in presence of CD28” value [4] was 0.394.

With MDWCPRHLWNECFN (tested as crude phage supernatant) [Phage-283] the “CD28 scFv signal” value [3] was 2.65 and the “CD28 scFv signal in presence of CD28” value [4] was 0.393.

For MDWCPRHLWNECFA (tested as crude phage supernatant) [Phage-306], the “CD28 scFv signal” value [3] was 2.39 and the “CD28 scFv signal in presence of CD28” value [4] was 0.17.

With MDWCPRHLWFECFN (tested as crude phage supernatant) [Phage-293] the “CD28 scFv signal” value [3] was 2.49 and the “CD28 scFv signal in presence of CD28” value [4] was 0.171.

In the case of MDWCPRHLWFECFF (tested as crude phage supernatant) [Phage-300], the “CD28 scFv signal” value [3] is reported as 2.45 and the “CD28 scFv signal in presence of CD28” value [4] is reported as 0.479.

For MDWCPKFLWDECFA (tested as crude phage supernatant) [Phage-304], the “CD28 scFv signal” value [3] was 2.41 and the “CD28 scFv signal in presence of CD28” value [4] was 0.376.

In the case of MDWCPRYLWHECFF (tested as crude phage supernatant) [Phage-301], the “CD28 scFv signal” value [3] is reported as 2.45 and the “CD28 scFv signal in presence of CD28” value [4] is reported as 0.682.

MHWCPTYMWSECFA [Phage-400] was tested, and the “CD28 scFv signal in presence of CD28” value [1] was 0.161 and the “CD28 scFv signal” value [2] was 1.84.

With MDWCPSYLWPVCFN [Phage-365] the “CD28 scFv signal in presence of CD28” value [5] was 0.131 and the “CD28 scFv signal” value [6] was 1.18.

With MDWCPRSMWDSCFN [Phage-399] the “CD28 scFv signal in presence of CD28” value [1] was 0.142 and the “CD28 scFv signal” value [2] was 2.02.

In the case of MDWCPMFLWHECFN (tested as crude phage supernatant) [Phage-309], the “CD28 scFv signal” value [3] is reported as 2.38 and the “CD28 scFv signal in presence of CD28” value [4] is reported as 0.591.

With MDWCPRYLWDYCFA (tested as crude phage supernatant) [Phage-280] the “CD28 scFv signal” value [3] was 2.71 and the “CD28 scFv signal in presence of CD28” value [4] was 0.382.

MDWCPRSLWDYCFA (tested as crude phage supernatant) [Phage-294] was tested, and the “CD28 scFv signal” value [3] was 2.49 and the “CD28 scFv signal in presence of CD28” value [4] was 0.235.

In the case of MDWCPRAMWDYCFY [Phage-397], the “CD28 scFv signal in presence of CD28” value [1] is reported as 0.339 and the “CD28 scFv signal” value [2] is reported as 2.11.

MDWCPKDMWAECFN [Phage-395] was tested, and the “CD28 scFv signal in presence of CD28” value [1] was 0.457 and the “CD28 scFv signal” value [2] was 2.11.
